This assay concerns the target klk5_human KLK5 (UniProt Q9Y337).

klk5_human KLK5, sequence (Q9Y337 whole entry): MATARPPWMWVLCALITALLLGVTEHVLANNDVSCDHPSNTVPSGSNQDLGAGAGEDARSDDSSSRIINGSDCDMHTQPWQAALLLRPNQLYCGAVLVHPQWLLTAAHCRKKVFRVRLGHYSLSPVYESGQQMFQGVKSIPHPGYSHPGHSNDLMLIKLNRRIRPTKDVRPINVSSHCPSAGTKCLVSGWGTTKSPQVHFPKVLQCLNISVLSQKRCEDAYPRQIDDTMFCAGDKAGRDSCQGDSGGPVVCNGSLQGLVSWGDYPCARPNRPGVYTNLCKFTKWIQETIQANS

“Filaggrin (Homo sapiens), P20930 S3385H;Y3388H;Q3389H;S3391H;T3392H”: the “effect of a mutation on the interaction” value is on record as “disrupting interaction”.

The record behind these values is IntAct's records for PubMed 23629652.
